Results as given in paper doi:10.1101/2025.07.31.667833, “Coiled-coil-mediated phase separation of Spef1 for non-centrosomal microtubule organization and function” (bioRxiv, 2025).
Positions count from the first letter of the chain named. Names may count otherwise.

B1: full-length wild-type Spef1 (mouse) (natural protein, UniProt Q99JL1 1-234, looked up)
chain: MESSVDEEALHQLYLWVDNIPLSRPKRNLSRDFSDGVLVAELIKFYFPKMVEMHNYVPANSLQQKLSNWGHLNRKVLNKLNFSVPDDVMRKIAQCSPGVVELVLIPLRQRLEERQRRQKLGVGSLQELAPQDSSGYMDMGLPQKVRGEGAPALGEQLREGRPLASRPPGYNQALQGDPSFVLQIAEKEQELLASQETVQVLQMKVKRLEHLLQLKNVRIDDLSRRLQQAERKQR
notes: Spef1 (sperm flagellar protein 1, CLAMP), mouse, full length; also called WT; CLAMP; source: E. coli BL21(DE3), purified (Ni2+-Sepharose, size-exclusion chromatography)
B2: Spef1 K206A/R207A mutant (full-length) (natural protein, mouse, UniProt Q99JL1 1-234, looked up)
chain: B1 chain with K206A, R207A
notes: Spef1, mouse, full length, with K206A and R207A on the coiled-coil surface; also called KR; charge-changing mutant; source: E. coli BL21(DE3), purified (Ni2+-Sepharose, size-exclusion chromatography)
B3: Spef1 E186A/E188A/E190A mutant (full-length) (natural protein, mouse, UniProt Q99JL1 1-234, looked up)
chain: B1 chain with E186A, E188A, E190A
notes: Spef1, mouse, full length, with E186A, E188A and E190A on the coiled-coil surface; also called charge-changing mutant; source: E. coli BL21(DE3), purified (Ni2+-Sepharose, size-exclusion chromatography)

Target: the molecule itself
Assay: SEC-MALS; ~1 mg/ml protein in 50 mM Tris-HCl pH 8.0, 500 mM NaCl, 1 mM EDTA, 1 mM DTT; WTC SEC column, 18-angle light scattering; oligomeric state (dimer or monomer)

Protein	stoichiometry N
B1	2
B2	2
B3	2
